# B1: recombinant Ae. aegypti venom allergen 1 (AaVA-1) (natural protein, Aedes aegypti, UniProt A0A1S4EWW7 22-255, looked up)
# chain: NYCDQSLCRRGPHVACNAPTQFGSACGQEPKFVKMDARMKNLLLKKHNELRAEIACGKHGFPQAARMPTLVWDDELAHIASFNARKCIFAHDKCRNTREFKFAGQNLAITAFAGYNFQAADRAENFTQEWFNEHKDCPKSYVDSYPMSHSGPQIGHFTQMVNDRAWKMGCSMVHYKNGRVIKYYLVCNYSMTNMIEEPIYTRGSAGSKCQTGQNPQYRGLCSPREKVRSESYRG
# notes: Made with the GP64 signal peptide, so its own signal peptide was probably left out; also called AVAa-1
# Target: T1, ectodomain of human CD4 (26-396 amino acid residues), recombinant (human, UniProt P01730 26-396)
# T1 construct: CD4, human, ectodomain, residues 26-396; Cloned into pfastbac1 with the GP64 signal peptide for secretion and a preScission protease site; also called recombinant CD4; CD4 protein
# Assay: ELISA; 5 μg salivary gland protein coated overnight at 4°C on high binding 96-well plates, blocked with 1% BSA in PBST; 1 μg CD4 or DC-SIGN ectodomain added at 37°C for 1 h; detected with rabbit anti-CD4 or HRP anti-DC-SIGN monoclonal antibody, TMB, read at 450 nm
# Conditions: both partners purified
binder,measurement,value
B1,binding result,binds

# From PMC9484696, “Identification of Aedes aegypti salivary gland proteins interacting with human immune receptor proteins” (PLoS Neglected Tropical Diseases, 2022)
